In test [1] the target is hMor1-34GS-Nb33 (human). The test is described as follows: radioligand competition against [3H]-diprenorphine on Sf9 membranes. Background: Displacement assays read how much labelled ligand stays bound in the presence of the test substance.
The next test has as its target hMor1-34GS-Nb10 (human). The description is as above.
Test [2] has as its target hMor1-34GS-Nb33 (human). The test can be described thus: ratio of the IC50s on hMor1-34GS-Nb10 (reference) and hMor1-34GS-Nb33 membranes, [3H]-diprenorphine competition.

The IC50 is the concentration needed to halve the response being measured. The low end stands for higher potency, the high end for lower potency. As to Dmt1-Dalda (peptide), the values for the IC50 with hMor1-34GS-Nb33 (human) [1] and with hMor1-34GS-Nb10 (human) were 18 nM and 655 nM, respectively.

In the case of KGOP01 (peptide), the results for the IC50 with hMor1-34GS-Nb33 (human) [1] and with hMor1-34GS-Nb10 (human) were 3.8 nM and 76.7 nM, respectively. Besides, in the test with hMor1-34GS-Nb33 (human) [2], the IC50Nb10/IC50Nb33 is 20.
